B1: Peroxisome proliferator-activated receptor delta, residues 71 to 145; numbered along this chain, Q03181 (parent)
chain: NMECRVCGDKASGFHYGVHACEGCKGFFRRTIRMKLEYEKCERSCKIQKKNRNKCQYCRFQKCLALGMSHNAIRF

This is an account of results in the Human Domainome abundance scans (Beltran et al. 2025).

± gives the uncertainty stated by the source.

This data set covers variants of B1. Briefly: abundance fitness (aPCA) (normalised: wild type 0, dead -1); higher = more abundant; growth selection in yeast, the domain comes from the species named. Conditions: Homo sapiens.
Consider NMECRVCGDKSSGFHYGVHACEGCKGFFRRTIRMKLEYEKCERSCKIQKKNRNKCQYCRFQKCLALGMSHNAIRF [A11S], for which the abundance fitness is -0.091 ± 0.045.
The figure for NMECRVCGDKASGFHYGVHACEGCKGFFRRTIRMKLEYEKCERSCKIQKKNRNLCQYCRFQKCLALGMSHNAIRF [K54L] is -0.046 ± 0.039.
With NMECRVQGDKASGFHYGVHACEGCKGFFRRTIRMKLEYEKCERSCKIQKKNRNKCQYCRFQKCLALGMSHNAIRF [C7Q], the abundance fitness was -0.584 ± 0.11.
NMECRVCGDKASGFHYGVHACEGCKGFFRRTIRMKLEYEKCERSCKIQKKNRKKCQYCRFQKCLALGMSHNAIRF [N53K]: the abundance fitness is -0.104 ± 0.069.
With NMECRVCGDKASGFHYGVHACEGCKGFFRRTIRMKLEWEKCERSCKIQKKNRNKCQYCRFQKCLALGMSHNAIRF [Y38W], the abundance fitness is -0.397 ± 0.061.
Consider NMECRVCGDKASGFHYGVQACEGCKGFFRRTIRMKLEYEKCERSCKIQKKNRNKCQYCRFQKCLALGMSHNAIRF [H19Q], for which the abundance fitness came to 0.131 ± 0.047.
The figure for NMECRVCGDKASGFHYGVCACEGCKGFFRRTIRMKLEYEKCERSCKIQKKNRNKCQYCRFQKCLALGMSHNAIRF [H19C] is 0.014 ± 0.058; for NMECRVCGDKASGFHYGVHACEGCKGFFRRTIRMKLEYEKCERSCKIQKKNRNKCGYCRFQKCLALGMSHNAIRF [Q56G] it is 0.002 ± 0.031; for NMECRVCGDKASGFHYGVHACEGCKGFFGRTIRMKLEYEKCERSCKIQKKNRNKCQYCRFQKCLALGMSHNAIRF [R29G] it is 0.09 ± 0.03.
Regarding NMECRVCGDKASGFHYGVHACEGCKGFFVRTIRMKLEYEKCERSCKIQKKNRNKCQYCRFQKCLALGMSHNAIRF [R29V], the abundance fitness amounted to 0.105 ± 0.039.
Then NMECRVCGDKASGFHYGVHACEGCKGFFCRTIRMKLEYEKCERSCKIQKKNRNKCQYCRFQKCLALGMSHNAIRF [R29C], with -0.009 ± 0.064; and NMECRVCGDKASGFHYGVHACEGCKGFFRRTIRMKLEYEKCERSCKIQKKNRNKCQYCRFQKCLALGMSHNAIRI [F75I], with -0.023 ± 0.09.
Turning to NMECRVCGDKASGFHYGVHACEGCKGFFRRFIRMKLEYEKCERSCKIQKKNRNKCQYCRFQKCLALGMSHNAIRF [T31F], the abundance fitness was -0.406 ± 0.15.
The figure for NMECRVCGDKASGFHYGVHACEGCKGFFRRMIRMKLEYEKCERSCKIQKKNRNKCQYCRFQKCLALGMSHNAIRF [T31M] is -0.521 ± 0.13.
Then NMECRVCGDKASGFHYGVHACEGCKGFFRRNIRMKLEYEKCERSCKIQKKNRNKCQYCRFQKCLALGMSHNAIRF [T31N], with -0.967 ± 0.28.
In the case of NMECRVCGDKASGFHYGVHACEGCKGFFRCTIRMKLEYEKCERSCKIQKKNRNKCQYCRFQKCLALGMSHNAIRF [R30C], the abundance fitness is -0.275 ± 0.08.
Take NMECRVCGDKASGFHYGVHACEGCKGFFRRTIRMKLEYEKCERSCKIQKKNRNKCQYCRFQKCLALGMGHNAIRF [S69G]: the abundance fitness was -0.001 ± 0.035.
Consider NMENRVCGDKASGFHYGVHACEGCKGFFRRTIRMKLEYEKCERSCKIQKKNRNKCQYCRFQKCLALGMSHNAIRF [C4N], for which the abundance fitness was -0.738 ± 0.2.
Consider NMECRVCGDKASGFHYGVHACEGCKGFFRRTIRLKLEYEKCERSCKIQKKNRNKCQYCRFQKCLALGMSHNAIRF [M34L], for which the abundance fitness worked out at 0.006 ± 0.036.
Then NMECRVCGDKASGFHYGVHACEGCKGFFRRTIRPKLEYEKCERSCKIQKKNRNKCQYCRFQKCLALGMSHNAIRF [M34P], with -0.602 ± 0.12.
Then NMECRVCLDKASGFHYGVHACEGCKGFFRRTIRMKLEYEKCERSCKIQKKNRNKCQYCRFQKCLALGMSHNAIRF [G8L], with -0.598 ± 0.07; and NMECRVCGDKACGFHYGVHACEGCKGFFRRTIRMKLEYEKCERSCKIQKKNRNKCQYCRFQKCLALGMSHNAIRF [S12C], with -0.103 ± 0.069.
With NMECRVCGDKASGFHYGVHACEGCKCFFRRTIRMKLEYEKCERSCKIQKKNRNKCQYCRFQKCLALGMSHNAIRF [G26C], the abundance fitness was -0.139 ± 0.058.
For NMECRVCGDKASGFHYGVHACEGCKGFFRRTIRMKLEYEKCERSCCIQKKNRNKCQYCRFQKCLALGMSHNAIRF [K46C], the abundance fitness is -0.046 ± 0.052.
As to NMACRVCGDKASGFHYGVHACEGCKGFFRRTIRMKLEYEKCERSCKIQKKNRNKCQYCRFQKCLALGMSHNAIRF [E3A], the abundance fitness was -0.204 ± 0.047.
The figure for NMCCRVCGDKASGFHYGVHACEGCKGFFRRTIRMKLEYEKCERSCKIQKKNRNKCQYCRFQKCLALGMSHNAIRF [E3C] is -0.278 ± 0.076; for NMECRVCGDKASGFHYGVHACEGCKGFFRRTIRMKLEYEKCERSCKIQKKNRNKCQTCRFQKCLALGMSHNAIRF [Y57T] it is -0.77 ± 0.16; for NMECRVCGDKASGFHYGVHACEGCKGFFRRTIRMKLEYEKCERSCKIQKKNRNKCQECRFQKCLALGMSHNAIRF [Y57E] it is -0.601 ± 0.084.
As to NMECRVCGDKASGFHYGVHACEGCKGFFRRTIRMKLEYEKCERSCKIQKKNRNKCQYTRFQKCLALGMSHNAIRF [C58T], the abundance fitness is -0.957 ± 0.15.
As for NMECRVCGDKASGFHYGVHACEGCKGFFRRTIRMKLEYEKCERSCKIQKKNRNKCQYCRFQKVLALGMSHNAIRF [C63V], the abundance fitness is -0.912 ± 0.12.
The figure for NMECRVCGDKASGFHYGVHACEGCKGFFRRTIRMKLYYEKCERSCKIQKKNRNKCQYCRFQKCLALGMSHNAIRF [E37Y] is -0.326 ± 0.12; for NMECRVCGDKASGFHYGVHACEGCKGFFRRTIRMKLHYEKCERSCKIQKKNRNKCQYCRFQKCLALGMSHNAIRF [E37H] it is -0.067 ± 0.083.
For the variant NMECRVCGDKASGFHYGVHACEGCKGFFRRTIRMKLEYEKCERSCKIQKKNRNKDQYCRFQKCLALGMSHNAIRF [C55D], the abundance fitness is -1.39 ± 0.49.
The figure for NMECRVCGDKASGFHYGVHACEGCKGFFRRTIRMKLEYEKCERSCKIQKKNRNKTQYCRFQKCLALGMSHNAIRF [C55T] is -0.393 ± 0.11.
Then NMECRVCGDKASGFHYGVHACEGCKGFFRRTIRMKLEYEKCERSCKIQKKNRNKCQYCRFQKCLAFGMSHNAIRF [L66F], with -0.438 ± 0.11; and NMECRVCGDKASGFHYGVHACEGCKGFFRRTIRMKLEYEKCERSCKIQKKNRNKCQYCRFQKCLAVGMSHNAIRF [L66V], with 0.113 ± 0.035.
